Numbered stars: 1 amine (or outer) side, 2 acyl side, 3 side chain; on linkers, the order of the positions; unused ones are H or OH. Square brackets hold non-standard residues; d marks the D form. β3hPhe(2R-OH) = O=C([C@H](O)[C@H](Cc1ccccc1)N[*:1])[*:2]
Target: T1, recombinant human BACE-1 (rhBACE-1) (Homo sapiens, UniProt P56817)
T1 construct: expressed as only an extracellular region (amino acid 1-460 residues) of recombinant human β-secretase; His tag (C); purchased R&D systems (Minneapolis, Minn.); host or cells: murine myeloma cell line NS0
T1 sequence (P56817 22-460 limits assumed): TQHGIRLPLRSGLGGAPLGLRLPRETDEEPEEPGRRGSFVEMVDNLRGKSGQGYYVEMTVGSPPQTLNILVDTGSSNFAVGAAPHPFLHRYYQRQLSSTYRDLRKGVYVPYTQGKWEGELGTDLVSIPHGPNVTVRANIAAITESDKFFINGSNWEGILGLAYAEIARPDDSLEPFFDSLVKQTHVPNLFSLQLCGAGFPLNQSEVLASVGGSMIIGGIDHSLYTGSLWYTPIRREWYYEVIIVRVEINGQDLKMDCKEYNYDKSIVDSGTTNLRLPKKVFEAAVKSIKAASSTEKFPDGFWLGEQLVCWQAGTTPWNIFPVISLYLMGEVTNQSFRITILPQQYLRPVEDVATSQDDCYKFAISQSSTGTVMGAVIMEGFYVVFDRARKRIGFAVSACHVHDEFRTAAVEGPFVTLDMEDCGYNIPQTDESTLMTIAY
Test: BACE1 inhibitory activity, reverse phase HPLC quantitation of N-terminal fragment of fluorogenic substrate
Assay type: biochemical
Conditions: 1 μL of inhibitor solution in DMSO (100 μM) in 50 μL reaction; MES buffer pH 5.0; 37° C., 60 minutes
Summary of the method: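 rhBACE-1 ectodomain (residues 1-460, C-terminal His tag, NS0-expressed) in MES buffer pH 5.0 with inhibitor (diluted in DMSO, 100 μM solution) and MCA/DNP fluorogenic peptide (250 μM stock), 60 min at 37 °C, TCA stop. N-terminal fragment quantified by reverse-phase HPLC fluorescence (Ex 328/Em 393 nm); inhibition % derived.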

| Substance | Activity (BACE1 inhibition %) |
| --- | --- |
| H-Glu-Val-Leu-Pns-Asp-OH [Example 34] | 63.71% |
| H-Glu-Val-Leu-Pns-Glu-Ala-Glu-Phe-OH (H-EVL[β3hPhe(2R-OH)]EAEF-OH; SMILES CC(C)C[C@H](NC(=O)[C@@H](NC(=O)[C@@H](N)CCC(=O)O)C(C)C)C(=O)N[C@@H](Cc1ccccc1)[C@@H](O)C(=O)N[C@@H](CCC(=O)O)C(=O)N[C@@H](C)C(=O)N[C@@H](CCC(=O)O)C(=O)N[C@@H](Cc1ccccc1)C(=O)O) [Example 15] | 54.52% |
| H-Glu-Val-Leu-Pns-Gly-Ala-Glu-Phe-OH (H-EVL[β3hPhe(2R-OH)]GAEF-OH; SMILES CC(C)C[C@H](NC(=O)[C@@H](NC(=O)[C@@H](N)CCC(=O)O)C(C)C)C(=O)N[C@@H](Cc1ccccc1)[C@@H](O)C(=O)NCC(=O)N[C@@H](C)C(=O)N[C@@H](CCC(=O)O)C(=O)N[C@@H](Cc1ccccc1)C(=O)O) [Example 42] | 56.72% |
| β-ODap-Val-Leu-Pns-Asp-Ala-Gly-Phe-OH ({β‑ODap}-VL[β3hPhe(2R-OH)]DAGF-OH) [Example 63] | 96.66% |

Reference: US7312188B2, “Peptide derivatives having β-secretase inhibitory activity” (priority 2003, dated 2007)
